In data set [1] the target is T1, SpoVG-6-His (Listeria monocytogenes 10403S) (UniProt Q8YAD5).
T1 sequence: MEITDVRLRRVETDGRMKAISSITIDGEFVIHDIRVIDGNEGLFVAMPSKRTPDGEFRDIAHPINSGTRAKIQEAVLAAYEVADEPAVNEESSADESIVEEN
As to the kind of experiment: EMSA. The conditions noted are these: 2x buffer: 40 mM Tris-HCl pH 8.0, 2 mM MgCl2, 20% glycerol, 300 mM NaCl, 5 mM DTT, plus 5 ug yeast tRNA, 1 ug BSA, 100 ng poly(dI-dC) ….

The target of data set [2] is T1, SpoVG-6-His (Listeria monocytogenes 10403S). The data set is described as follows: competition. The note with it: EMSA, 2x buffer: 40 mM Tris-HCl pH 8.0, 2 mM MgCl2, 20% glycerol, 300 mM NaCl, 5 mM DTT; plus 5 ug yeast tRNA, 1 ug BSA, 100 ng poly(dI-dC) …. For orientation: Mobility shift assays separate free from complexed probe on a gel.
Data set [3] concerns the target T2, SpoVG-6-His (Listeria monocytogenes 10403S, UniProt Q8YAD5 1-102).
T2 sequence: T1 sequence
As to the kind of experiment: EMSA; EMSA, 2x buffer: 40 mM Tris-HCl pH 8.0, 2 mM MgCl2, 20% glycerol, 300 mM NaCl, 5 mM DTT; plus 5 ug yeast tRNA, 1 ug BSA, 100 ng poly(dI-dC); 25-30 ul, room temperature 30 min, 5% native PAGE. The note with it: protein: recombinant; tags: C-terminal 6xHis; label: 32P.

The target in data set [4] is T2, SpoVG-6-His. The data set is described as follows: EMSA; no significant binding to dsDNA; EMSA, 2x buffer: 40 mM Tris-HCl pH 8.0, 2 mM MgCl2, 20% glycerol, 300 mM NaCl, 5 mM DTT; plus 5 ug yeast tRNA, 1 ug BSA, 100 ng poly(dI-dC); 25-30 ul, room temperature 30 min, 5% native PAGE. The conditions noted are these: protein: recombinant; tags: C-terminal 6xHis; label: 32P; blunt.

In the case of “GGGAAAAGAAACCCUAAUGUAUUCGAUAUAGUUCCUGAUAUUUUUGAACCGAACAAUUUUUUAUACCUAGGGAGCUUGGAGUUCCGGCGCGGCGCACAUGCCUUCACACGAGGAAGUGCAAACCGUUAGACAGAGCACCCACCUGCUUUAAUUGAGAGCGGGUUCAAAGGAAGGGAAUCCUAAACGGUACGAUUGGGGUUUCUUUUUUG [6S RNA]”, in data set [1], the binding result is “no binding”. Regarding “GGGCAGUGGAAUUAAAGGCAUCUAAGCAAAUCAUGAUGAACGAGAGAACCGUUUGAAGAUCAUCCGAAUGACGUAUAUGUUCUACCUUGAUCUGUUCAGCCGCAAUGCUUUUGCGAGUGACA [Rli109]”, the Kd in data set [1] is 129 nM. The binding result in data set [2] was “binds”. In the case of “GGGUGGAGAGCUUUCAUUUUUCCCAAGAGAAAGCAAAUAAUGUUAGAGCAAUAAUUCUAGUAUCCGAAUUAGUCUUAUCCCUUGGCUCGCUUUAAUAUUAUUUCUCCCUAAUACUCCCUUAACCGCAUCCCCCUGGUGCGGUUAUUUUUUUG [Rli32]”, the Kd in data set [1] was 273 nM. As to “GGUAUCCCAUAGAGAUUGUCAGGGGAAAUAAGCUAAUUGAAAAUAAAUUACUUCCCCCAUAGAAAUAUUCUUAAUUGCUUAUUUCAAAUAAACACUCCUUUAAGAUAGUUGUAGCACAGAAUUUCCCAGAUUCUGUGCUAUAAUUA [Rli31 mutant A]”, the binding result in data set [1] is “binds”.

For “GGUAUCCCAUAGAGAUUGUCAUUUGAAAUAAGCUAAUUGAAAAUAAAUUACUUCCCCCAUAGAAAUAUUCUUAAUUGCUUAUUUCAAAUAAACACUCCUUUAAGAUAGUUGUAGCACAGAAUUUCCCAGAUUCUGUGCUAUAAUUA [Rli31]”, the Kd in data set [1] came out at 273 nM. On to “GGUAUCCCAUAGAGAUUGUCAUUUGAAAUAAGCUAAUUGAAAAUAAAUUACUUUUUCCAUAGAAAUAUUCUUAAUUGCUUAUUUCAAAUAAACACUCCUUUAAGAUAGUUGUAGCACAGAAUUUCCCAGAUUCUGUGCUAUAAUUA [Rli31 mutant E]”, for which the binding signal entry in data set [1] is “binds more weakly”. As to “GGUGAGAUGACAUGUUUCUUUUGAAUGCGCGAACUAGUAUAGCUAAAUUUUUGUAUAUUGUCCGUGCAAUUUUUUCCGUUAUUGCAGUUACAUUGGCGAAGUCUGCCCAAAAAACUGUAUAACUAGAAAAAAUGAGAGAAGCAUGGAGUCACGCAAUCGAUUUGUAUAGUGCUAAAUUAGUAUUAUACUUAUAAUUGGCGUCGGGCGCUUGUCUGACGCUUUUUUGUUGUCUGAAAAAA [RliI]”, the binding entry in data set [1] is listed as “binds more weakly”. Still for that read-out and setting: to “GGUUGUCGUGCUAGACGGGGAGGUAGCGGCGCCCUGUAACCCGCAAUCCGCUCUAGCGGGGUUGAAUUCCUCAUUUGAGGCAUCGUAAUUGUUUGGUCUGCCCUUGACAAGUGGUGUUGAAGGUUGGGUCUUGCGCAAUGGGAACCUGUGAACCAUGUCAGGUCCGGAAGGAAGCAGCAUUAAGCAGUGCUUCUCAUGUGCCGCGAGGUCGCCUGGCCCGAGCUAACUAUCAGGGUAACGCAGAUGAUUGCAUGUCGAUGUGAGGUGCGCGACACUAA [SRP RNA]” belongs “no binding”. Consider Rli31, for which, in data set [1], the Kd was determined as 273 nM.

Regarding Rli32, the Kd in data set [1] came out at 273 nM. Take Rli109: the Kd in data set [1] came out at 129 nM. Turning to GTCGCGCAACAAAGTAATAATGCAGATGGACAGACTAATGAAAGACCAG (ssDNA) [pgdA ORF], in data set [3], the binding result was “binds”.

B1: cap41 dsDNA (dsDNA)
DNA 1: GAGTATAATTATTTTTAATTTACATATAAATAAAAAGGCGAAAATAATGCGGTTTAAAAGTAATTAAT
DNA 2: ATTAATTACTTTTAAACCGCATTATTTTCGCCTTTTTATTTATATGTAAATTAAAAATAATTATACTC
On to B1, for which the binding result in data set [4] is on record as “no binding”.

What is called Kd is a measure of binding affinity in units of concentration.
